Measurements from the nanobody polyreactivity screen of Harvey et al. (2022).

assay: yeast display, Sf9 membrane polyspecificity reagent, FACS + sequencing; frameworks hold sequencing errors
In short: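 After 36–48 hours of galactose induction, yeast (Saccharomyces cerevisiae BJ5465) displaying a synthetic nanobody library were stained at 4 °C for 1 hour with 10% biotinylated, detergent-solubilized Sf9 membrane reagent. Streptavidin microbeads enriched the stained cells before FACS sorting into low and high (top ~1%) gates on anti-HA and streptavidin fluorescence. Each clone's polyreactivity label reflects its gate of origin.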

| Sequence | polyreactivity (PSR sort gate) |
| --- | --- |
| QVQLVESGGGLVQAGGSLRLSSAASGSIFGPYAMGWYRQAPGKERELVAAITWTGGRTYYADSVKGRFTISRDNAKKTVYLQMHSLKPEDTAVDYCAADYSPSTWYLYYTLYYYWGQGTQVTVSS | low polyreactivity |
| QVQLVESGGGLVQAGGSLRLSSAASGSIFGYNPMGWYRPAPGKERELVAAIRISTDNTYYADSVKGRFTISRDNAKNTVYLQMNSLKPEDTAVDYCAADEYWWGYYYWGQGTQVTVSS | high polyreactivity |
| QVQLVESGGGLVQAGGSLRLSSAASGSIFKINAMGWYRQAPGKETELVATITWSTGTTYYADSVKGRFTISRDNAKNTVYLQMNSLKPEDTAVYYCATDGDSTKLDYWGQVTQVTVSS | low polyreactivity |
| QVQLVESGGGLVQAGGSLRLSSAASGSIFLKNAMGRSRQAPGKERELVARISFSGGSTYYADSVKGRFTISRDNAQNTVYLQMNSLKPEDTAVYYCAKTVLRTESGWWIKFDYWGQGTQVTVSS | low polyreactivity |
| QVQLVESGGGLVQAGGSLRLSSAASGSIFSQYDIGWYRPAPGKERQLVAAISSGGSTYYADSVKGRFTISRYNAKNTVYLQMNSLKPEDTAVYYCAAVYYQITTTHYLHLHYDYWGQGTQVTVSS | low polyreactivity |
| QVQLVESGGGLVQAGGSLRLSSAASGSIFVNYVMGWYRQAPGKERELVADISSGGSTYYADSVKGRFTISRDNAKNTVYLQMNSLKPEDTAVYYCNAVYPYTYDYWGQGTQVTVSS | low polyreactivity |
| QVQLVESGGGLVQAGGSLRLSSAASGSIFYDNAMAGYRQAPGKERELVAVITVSGESTYYADSVKGRFTISRDNAKTTVYLQMNSLKPEDTAVYYCNTDAISGSHFWRYITFGYLDDYWGQGTQVTVSS | low polyreactivity |
| QVQLVESGGGLVQAGGSLRLSSAASGSIFYDYAMGWYRQAPGKERELVAAITNDDSSTYYADSVKGRFTISRDNAKNTVYLQMNSLKPEDTAVYYCRFKYAVAHHFWVYRYDYWGQGTQVTVSS | low polyreactivity |
| QVQLVESGGGLVQAGGSLRLSSAASGSIFYGNTMGWYRQAPGKERELVAAIRSVGRTYYADSVKGRFTISRDNAKNTDSLQMNSLKPEDTAVYYCAADPRSYFTSEYWGQGSQVTVSS | low polyreactivity |
| QVQLVESGGGLVQAGGSLRLSSAASGSIFYYYAMGWYRQAPGKARELVATINISDGSTYYAVSVKGRFTISRDNAKNTVYLQMNSLKPEDTAVYYCAAYYYFQDYDYWGQGTQVTVSS | low polyreactivity |
| QVQLVESGGGLVQAGGSLRLSSAASGSIIQSNAIGGYRQAPGTERELVAAISYRGSRTYYADSVKGRFTISRDNAKNTVYIQMNSLKPDDTAVYYCAAVYRTYGIGPNNYWGQGTQVTVSS | high polyreactivity |
| QVQLVESGGGLVQAGGSLRLSSAASGSTFDYYALGWYSQARGKERELVAAISTSGSSTYYADSVKGRFTISRDNAKNTVYLQMNSLKPVDTAVYYCAAPIRYKGGYWGQGTQVTVSS | low polyreactivity |
| QVQLVESGGGLVQAGGSLRLSSAASGSTFDYYAMGWYRQAPGKERELVDGITYSGGTTYYADSVKGRFTISRDNAKNTVYLQMNSLKPEDTAVYYCNAVYDRNFYYWGQGTQVTVSS | high polyreactivity |
| QVQLVESGGGLVQAGGSLRLSSAASGSTFEIYAMGWYRQAPGKERDLVAGITTSDGRTDYADSVKGRFTISRDNAKNTVYLLMNILKPEDTAVYYCAKVTLGYTWYQYDYWGQGTQVTVSS | low polyreactivity |
| QVQLVESGGGLVQAGGSLRLSSAASGSTFFSYAMGWYRQAPGKERELVAAITRSGGSTYYADSVKGRFTISRDNAKNNVYLHMNSLTPEDTSVYYCAVLSALWRVFTERGYWGQGTQVTVSS | high polyreactivity |
| QVQLVESGGGLVQAGGSLRLSSAASGSTFGYNAMGRYRPAPGKERELVAAISRSGGSTSNADSVMGRFTISRDNANNTVYLQMNSLKPEDTAVYYCAARYYKERYWGQGTQVTVSA | low polyreactivity |
| QVQLVESGGGLVQAGGSLRLSSAASGSTFHNYAMRWSRQAPGNEREWVASIRLIGGSTYYADSVKGRFTISRDNAKNTVYLQMNSLKPEDTAVYYCAATSTDRSYLEYDYWGQGTQVTVSS | low polyreactivity |
| QVQLVESGGGLVQAGGSLRLSSAASGSTFRTYTMGWYRQAPGKERELVASITSGGRTYYADSVKGRFTISRDNAKNTVYLQMNSMKPEDTAVYYCAADVCKLYDYWGQGTQVTVSS | low polyreactivity |
| QVQLVESGGGLVQAGGSLRLSSAASGSTFRYNAMGWYRQAPGKERELVAAITSTGDSTYYADSVKGRFTISRDNAKNTVYLQMNSLKPEDTAVYYCAARSYASPGWRYEYWGQGTQVTVSS | low polyreactivity |
| QVQLVESGGGLVQAGGSLRLSSAASGSTFRYYPMGWYRQAPGKERELLARISWRGGSTYYADSVKGRFTISRDNAKNTVYLQMNSLKPEDTAVYYCAAVRWVRYRTSAYEYWGQGTQVTVSS | high polyreactivity |
| QVQLVESGGGLVQAGGSLRLSSAASGSTFSLYTMGWYRQEPGKERELVAAITWTGGSTYYADSVKGRFTISRDNAKNTVYLQMNSLKPEDTAVYYCAAVSRLTGSRESQLIRSRMYYWGQGTQVTVSS | high polyreactivity |
| QVQLVESGGGLVQAGGSLRLSSAASGSTFSYYAMGWYRQAPGKDRELVAAITSSGGSTYYADSVKGRFTISRDNAKNTVYLEMNSLKPEDTEVYYCNTAYHVPYDYWGQGTQVTVSS | low polyreactivity |

| Sequence | polyreactivity (PSR sort gate) |
| --- | --- |
| QVQLVESGGGLVQAGGSLRLSSAASGSTFTGYTMGWYRQATGKERELVASIRTYYADSVKGRFTISRDNAKNTVYLQMNSLKPEDTAVYYCAADFPSATGGYDYWGQGTQVTVSS | low polyreactivity |
| QVQLVESGGGLVQAGGSLRLSSAASGSTFTRYGMGWYRQAPGKERELVAAITTSGSSTYYADSVKGRFTISRDNAKNTVYLQMNSLKPEDTAVYYCAADWSSWGFDYWGQGTQVTVSS | low polyreactivity |
| QVQLVESGGGLVQAGGSLRLSSAASGSTFVTYAMGWYRQAPGKERELVAAISRRGGSTYYADSVKGRFTISRDNAKNTVYLQMNCLKPEDTAVYYCAPVQGSYSRDGADDYWGQGTQVTVSS | high polyreactivity |
| QVQLVESGGGLVQAGGSLRLSSAASGSTLGVYAMGWYRQAPGKERELVAGITRGGGRTYYADSVKGRFTISRENAKNTVYLQMNSLKPEDTAVYYCNKGQRGPYDYWGQGTQVTVSS | high polyreactivity |
| QVQLVESGGGLVQAGGSLRLSSAASGYILPFYAMGWYRQAPGKERELVASISSSSGRTNYADSVKGRFRISRDYAKNTVFFEMNSLKREVTEVYYCAAAFLSYVSTQYHYDYWGQGTQVSVSS | low polyreactivity |
| QVQLVESGGGLVQAGGSLRLSSAATGITFSSYAMGSYRQAPGKERELVAAISTRGGSTYYADSVKGRFTISRDNAKNTVYLQMNSLKPEDTAVYYCATGGRGGRRYEYWGQGTQVTVSS | low polyreactivity |
| QVQLVESGGGLVQAGGSLRLSSAATGSTSYNDMGWYRQATGKQRELGASITSSGDDTYYADSVKGRFTISRDNAKNTVYLQMNSLKPEDNAVYYCAAEDYHRHVGSYYVIDYDYWGQGTQVTVSS | low polyreactivity |
| QVQLVESGGGLVQAGGSLRLSSAATGYIYSHNAMGWYRQSPGKEREFVAGIDSSGGSTSYADSVKGRFTISRDNAKNTVYLQMNSLKPEDTAVYYCAADRTGSHFDYCGQGTQVTVSS | low polyreactivity |
| QVQLVESGGGLVQAGGSLRLSSADSGFIFSYYAMGWYRQAPGKERELVAAISSVGSTNYADSVKGRFTISRDNAKNTVYLQMNSLKPEDTAVYYCAARYLWYKYYYWGQGTQVTVSS | high polyreactivity |
| QVQLVESGGGLVQAGGSLRLSSADSGRTFRYYSMGWYRQAPGKERELVAAISSSGASTYYADSVKGRFTISRDYAKNTVYLQMNSLKPEDTAVYYCRSGILFYSRYDYWGQGTQVTVSS | low polyreactivity |
| QVQLVESGGGLVQAGGSLRLSSAPSGSTFTRYAMGWYRQAPGKERELVAAITSSGSRTYYADSVKGRFTISRDNAQNTVYLQKNSLKAEDTAVYYFAALGDTRYVGMDHWGQCTQVTVSS | high polyreactivity |
| QVQLVESGGGLVQAGGSLRLSSAPSGSTIHTYTMGWYRQAPGKDRELVAGISRSGGTTYYADSVKGRFTISRDNAKNTVYLQMNSLKPEVTAVYDCNALSSKTDTYDYWGQGTQVTVSS | high polyreactivity |
| QVQLVESGGGLVQAGGSLRLSSDASGFIFSFNALGWYRQAPGKERELVAAISRSGGSTRYADSVKGRFTISRDNAKNTVYLQMNSLKPEDTAVYYCANRFASYRYHPGYDYWGQGTQVTVSS | high polyreactivity |
| QVQLVESGGGLVQAGGSLRLSSDASGRIFYVYTMGWYRQAPGKEREFVAAISDSGGSTYYADSVKGRFTISRDNAKNTVYLQMNSLQTEDTAVYYCNAGYGPAAYYWYYGGYYYWGQGTQVTVSS | low polyreactivity |
| QVQLVESGGGLVQAGGSLRLSSDASGRILAGYAMGWYRQAPGKERELVAAITRGGTTYYADYVKGRFTISRDNAKNTVYLQINSMKPEDTAVVYTVSSAQYDFWGQGTQVTVSS | low polyreactivity |
| QVQLVESGGGLVQAGGSLRLSSDASGSIFTAYSIGWYRQAPGKERELVADITQSAGSTYADSVKGRFTISRDNAKNTVYLQMNSLKPADTAVYYCAARYRYPYYARYGYWGQGTQVTVSS | high polyreactivity |
| QVQLVESGGGLVQAGGSLRLSSPASGITFDKYAMGWYRQAPGKERELVAAISRSAGSTYYADSVKGRFTISRDNEKYSVYLQMKSLKPEDCAVYLCAGDPLIYDDYYWGQGTNVTVSS | high polyreactivity |
| QVQLVESGGGLVQAGGSLRLSSPASGLIFGAYAMGWYRQERGKERELVAAISYSGGRTYYADSVKGRFTMSRDNAKNTVYLQLNSLKPEDTAVYYCNALWYLSLSYRYDYWGQGTQVTVSS | high polyreactivity |
| QVQLVESGGGLVQAGGSLRLSSPASGSIFITYAMGWYRQAPGKESELVAAIRDSGDRTYYADSVKGRFTISRDNAKKTVYFQMNSLKPEDTAVYYCNARWQEPLKYDYWGQGTQVTVSS | low polyreactivity |
| QVQLVESGGGLVQAGGSLRLSSPDSGYIFLPYTMGWYRQAHGKERELVASITWRGTNTYYADSVKGRFTISRDNAKNTVYLQMNSLKPEDTAGYYCTKVPTYWDPNYYYWGQGTQVTVSS | high polyreactivity |
| QVQLVESGGGLVQAGGSLRLSTAASGIIFWYNAMGWYRQAPGKERELVAAISTGGSTNYADSVKGRFTISRDNAKNTVYLQMNSLKPEDTAVYYCAADWHRSYGAYDYWGQGTQVNVSS | low polyreactivity |
